Results from patent US7355015B1, “Matriptase, a serine protease and its applications” (Georgetown University School of Medicine, priority 1999, dated 2008).

Experiments:
[1] = target: T1, 40-kDa fragment of hepatocyte growth factor activator inhibitor-1 (HAI-1)
T1 chain: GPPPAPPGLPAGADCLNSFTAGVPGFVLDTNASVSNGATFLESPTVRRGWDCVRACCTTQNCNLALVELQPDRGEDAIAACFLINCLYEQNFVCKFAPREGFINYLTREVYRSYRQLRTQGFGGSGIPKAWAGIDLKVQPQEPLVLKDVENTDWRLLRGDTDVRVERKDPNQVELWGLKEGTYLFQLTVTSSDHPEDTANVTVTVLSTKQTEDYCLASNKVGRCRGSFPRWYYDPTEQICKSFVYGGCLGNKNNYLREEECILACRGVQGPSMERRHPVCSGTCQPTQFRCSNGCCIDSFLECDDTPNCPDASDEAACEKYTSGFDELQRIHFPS

[2] = target: T2, soybean-derived Bowman-Birk inhibitor (BBI), P01055
T2 chain: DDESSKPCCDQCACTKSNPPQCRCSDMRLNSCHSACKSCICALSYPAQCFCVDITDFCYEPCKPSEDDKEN

matriptase [3] = target: T3, matriptase (Homo sapiens, UniProt Q9Y5Y6); experiment: Fluorescent substrate assay and zymography with BBI; assay type: biochemical
T3 sequence (Q9Y5Y6 1-855): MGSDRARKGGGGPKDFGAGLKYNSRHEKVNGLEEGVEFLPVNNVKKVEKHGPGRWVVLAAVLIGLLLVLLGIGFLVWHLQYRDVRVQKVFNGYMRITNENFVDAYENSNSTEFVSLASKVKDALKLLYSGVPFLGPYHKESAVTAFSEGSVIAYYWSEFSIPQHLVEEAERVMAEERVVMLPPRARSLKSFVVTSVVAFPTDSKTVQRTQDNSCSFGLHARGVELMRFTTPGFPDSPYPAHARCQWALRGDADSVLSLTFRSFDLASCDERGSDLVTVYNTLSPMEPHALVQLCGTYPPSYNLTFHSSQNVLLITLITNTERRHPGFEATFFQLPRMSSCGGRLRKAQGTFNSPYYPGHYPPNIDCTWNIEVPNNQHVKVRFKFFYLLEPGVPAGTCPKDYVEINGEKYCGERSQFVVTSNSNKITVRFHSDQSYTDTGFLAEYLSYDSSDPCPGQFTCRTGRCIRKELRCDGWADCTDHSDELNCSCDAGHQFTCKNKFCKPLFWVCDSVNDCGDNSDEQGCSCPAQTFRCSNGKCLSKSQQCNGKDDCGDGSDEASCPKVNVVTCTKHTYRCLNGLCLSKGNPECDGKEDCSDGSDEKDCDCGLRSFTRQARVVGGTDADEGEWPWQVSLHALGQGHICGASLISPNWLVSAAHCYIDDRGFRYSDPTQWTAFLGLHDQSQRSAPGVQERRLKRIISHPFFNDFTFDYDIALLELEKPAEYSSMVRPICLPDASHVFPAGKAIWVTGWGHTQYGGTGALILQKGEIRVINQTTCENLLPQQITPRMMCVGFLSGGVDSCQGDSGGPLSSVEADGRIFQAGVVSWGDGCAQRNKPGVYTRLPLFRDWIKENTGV
Method: A concentrate of BBI, BBIC, can be administered in dosage sufficient to obtain a blood level of 0.001 to 1 mM concentration of BBI in the blood as a means of inhibiting tumor initiation in a susceptible to breast cancer. As indicated by presence of matriptase in nipple aspirate or in tissue from biopsy, including tissue from needle biopsy. […] BBI interacts directly with the serine protease active site on matriptase.

human tissue kallikrein = human tissue kallikrein (Homo sapiens, UniProt P06870); conditions: cited from earlier work
human tissue kallikrein, sequence (P06870 25-262): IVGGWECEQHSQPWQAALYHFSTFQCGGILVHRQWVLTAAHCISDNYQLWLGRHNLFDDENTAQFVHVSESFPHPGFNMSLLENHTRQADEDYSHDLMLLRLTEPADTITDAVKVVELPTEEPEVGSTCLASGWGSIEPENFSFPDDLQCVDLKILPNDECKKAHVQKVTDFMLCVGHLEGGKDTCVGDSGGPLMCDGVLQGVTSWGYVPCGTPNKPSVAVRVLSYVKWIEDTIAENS

human plasmin = human plasmin (Homo sapiens, UniProt P00747); conditions: cited from earlier work
human plasmin, sequence (P00747 581-810 limits assumed): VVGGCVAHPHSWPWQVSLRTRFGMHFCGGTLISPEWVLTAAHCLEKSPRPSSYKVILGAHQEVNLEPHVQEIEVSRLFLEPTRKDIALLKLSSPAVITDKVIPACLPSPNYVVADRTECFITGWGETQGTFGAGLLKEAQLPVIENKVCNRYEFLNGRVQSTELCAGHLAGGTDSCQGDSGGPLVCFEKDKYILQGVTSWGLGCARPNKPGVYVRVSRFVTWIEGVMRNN
human plasmin, sequence (P00747 97-580 partner limits assumed): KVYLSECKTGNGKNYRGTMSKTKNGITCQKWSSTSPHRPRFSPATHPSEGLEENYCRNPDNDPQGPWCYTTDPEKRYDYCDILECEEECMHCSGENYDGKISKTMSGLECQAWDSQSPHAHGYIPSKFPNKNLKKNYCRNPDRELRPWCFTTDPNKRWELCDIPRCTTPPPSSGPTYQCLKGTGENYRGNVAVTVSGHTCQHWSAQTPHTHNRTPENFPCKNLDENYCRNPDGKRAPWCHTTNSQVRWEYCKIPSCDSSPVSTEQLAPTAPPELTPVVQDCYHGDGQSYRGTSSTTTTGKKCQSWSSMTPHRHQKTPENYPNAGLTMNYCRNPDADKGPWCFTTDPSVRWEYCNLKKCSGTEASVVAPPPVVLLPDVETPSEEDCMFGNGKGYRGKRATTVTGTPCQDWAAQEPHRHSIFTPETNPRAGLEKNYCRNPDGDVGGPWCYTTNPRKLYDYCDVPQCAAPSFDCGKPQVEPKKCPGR

human factor XIa = human factor XIa (Homo sapiens, UniProt P03951); conditions: cited from earlier work
human factor XIa, sequence (P03951 388-625 limits assumed): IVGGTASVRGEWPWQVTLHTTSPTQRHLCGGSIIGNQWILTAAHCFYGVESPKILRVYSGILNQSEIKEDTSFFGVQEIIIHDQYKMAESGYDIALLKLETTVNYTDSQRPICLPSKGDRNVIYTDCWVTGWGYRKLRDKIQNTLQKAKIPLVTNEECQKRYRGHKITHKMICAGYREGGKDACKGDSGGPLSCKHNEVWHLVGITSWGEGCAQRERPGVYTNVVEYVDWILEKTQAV
human factor XIa, sequence (P03951 19-387 partner limits assumed): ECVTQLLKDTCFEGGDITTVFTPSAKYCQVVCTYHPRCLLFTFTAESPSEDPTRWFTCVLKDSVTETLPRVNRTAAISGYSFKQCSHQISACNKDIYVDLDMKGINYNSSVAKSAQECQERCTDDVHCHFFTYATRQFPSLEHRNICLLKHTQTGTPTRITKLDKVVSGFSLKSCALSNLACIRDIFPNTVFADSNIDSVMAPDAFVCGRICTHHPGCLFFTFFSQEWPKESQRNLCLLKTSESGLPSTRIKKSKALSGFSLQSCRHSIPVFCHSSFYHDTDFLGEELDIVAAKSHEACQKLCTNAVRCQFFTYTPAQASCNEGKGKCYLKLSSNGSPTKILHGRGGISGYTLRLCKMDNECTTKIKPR

human plasma kallikrein = human plasma kallikrein (Homo sapiens, UniProt P03952); conditions: cited from earlier work
human plasma kallikrein, sequence (P03952 20-638): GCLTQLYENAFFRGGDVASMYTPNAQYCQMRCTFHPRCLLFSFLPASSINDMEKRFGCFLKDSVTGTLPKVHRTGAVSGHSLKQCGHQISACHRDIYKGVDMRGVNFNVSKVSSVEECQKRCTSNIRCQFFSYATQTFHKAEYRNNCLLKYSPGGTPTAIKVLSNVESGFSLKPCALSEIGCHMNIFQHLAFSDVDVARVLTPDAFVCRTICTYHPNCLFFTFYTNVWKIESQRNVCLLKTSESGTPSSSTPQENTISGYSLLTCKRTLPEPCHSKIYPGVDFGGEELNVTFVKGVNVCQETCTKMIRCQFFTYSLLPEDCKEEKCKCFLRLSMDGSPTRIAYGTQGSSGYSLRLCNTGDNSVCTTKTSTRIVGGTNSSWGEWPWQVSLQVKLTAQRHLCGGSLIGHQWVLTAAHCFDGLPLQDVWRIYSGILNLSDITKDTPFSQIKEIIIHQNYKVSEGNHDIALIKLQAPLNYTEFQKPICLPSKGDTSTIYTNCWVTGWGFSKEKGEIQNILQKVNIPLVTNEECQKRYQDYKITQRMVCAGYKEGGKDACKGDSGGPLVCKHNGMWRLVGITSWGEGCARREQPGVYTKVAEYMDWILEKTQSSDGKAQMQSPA

matriptase [4] = target: T4, matriptase (Homo sapiens, UniProt Q9Y5Y6); experiment: Gelatin zymography of matriptase/HAI-1 preparation; assay type: biochemical
T4 construct: from tissue; host or cells: human milk
T4 sequence (Q9Y5Y6 615-855 limits assumed): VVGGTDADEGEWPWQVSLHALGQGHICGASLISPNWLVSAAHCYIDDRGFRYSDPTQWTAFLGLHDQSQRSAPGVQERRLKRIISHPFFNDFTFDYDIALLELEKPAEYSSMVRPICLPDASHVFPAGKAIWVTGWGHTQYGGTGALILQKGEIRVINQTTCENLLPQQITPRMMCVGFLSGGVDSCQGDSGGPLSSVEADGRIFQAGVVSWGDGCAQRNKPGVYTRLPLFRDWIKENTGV
T4 sequence (Q9Y5Y6 190-614 partner limits assumed): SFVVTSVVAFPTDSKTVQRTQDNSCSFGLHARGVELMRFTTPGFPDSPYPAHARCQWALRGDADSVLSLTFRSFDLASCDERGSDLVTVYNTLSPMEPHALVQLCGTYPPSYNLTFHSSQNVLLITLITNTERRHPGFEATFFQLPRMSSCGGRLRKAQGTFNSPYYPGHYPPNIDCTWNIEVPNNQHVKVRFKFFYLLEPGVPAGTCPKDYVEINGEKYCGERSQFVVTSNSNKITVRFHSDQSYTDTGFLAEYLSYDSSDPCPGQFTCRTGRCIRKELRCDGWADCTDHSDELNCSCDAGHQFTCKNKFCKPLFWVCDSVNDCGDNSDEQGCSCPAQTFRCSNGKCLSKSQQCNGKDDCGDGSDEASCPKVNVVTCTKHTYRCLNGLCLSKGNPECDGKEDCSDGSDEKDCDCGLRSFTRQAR
Method: (§1) Matriptase and HAI-1 were isolated from human milk by anti-matriptase mAb 21-9 immunoaffinity chromatography, as described in Example 1, and were maintained in an uncomplexed status in elution buffer, 0.1 M glycine, pH 2.4. This preparation was brought to pH 8.5, incubated at 37° C. for 0, 5, 30 and 60 min., and subjected to immunoblotting using anti-matriptase mAb 21-9 (panel A), gelatin zymography (panel B), and to a cleavage rate assay using the synthetic, fluorescent substrate, BOC—Gin—Ala—Agr-7-amido 4-methylcoumarin (panel C). […] A milk-derived, matriptase-related 110-kDa protease (as indicated in panel A), which was not a complex of matriptase and HAI-1, and whose migration on SDS gel was reduced after boiling (see Example 1).
Gelatin zymography: Gelatin zymography was carried out as previously described with some modifications (Brown et al., Biochem J. 101: 214-228 (1966)). Gelatin (1 mg/ml), as a substrate, was copolymerized with regular SDS-polyacrylamide gel. Electrophoresis was performed at a constant current of 15 mA. The gelatin gels were washed 3 times with PBS containing 2% Triton X-100 and incubated in PBS at 37° C. overnight.
Inhibition of matriptase activity by the interaction with HAI-1: HAI-1, a protein containing contains two protease inhibitory domains (Kunitz domains), was initially identified as a binding protein of matriptase. […]

matriptase [5] = target: T4, matriptase; experiment: Cleavage rate assay with fluorescent substrate BOC-Gln-Ala-Arg-AMC after matriptase/HAI-1 complex formation; assay type: biochemical; conditions: pH 8.5
Method: as §1
Proteolytic activity of matriptase determined by cleavage of trypsin substrate, BOC—Gln—Ala—Arg—AMC: A variety of synthetic, fluorescent protease substrates with arginine or lysine as P1 sites can be cleaved by matriptase, as described in Example 2. Among these substrates, t-butyloxycarbonyl (BOC)—Gln—Ala—Arg-7-amino-4-methylcoumarin (Sigma; St. Louis, Mo.) is likely to be the best one. Using this substrate, matriptase was assayed in 20 mM Tris buffer pH 8.5 at 25° C. in a total volume of 200 μl. The final substrate concentration was 0.1 mM. The rate of cleavage was determined with a fluorescence spectrophotometer (Hitachi, F-4500). […]

[6] = after 30 and 60 min incubation at 37° C.

B1: two-chain (active) form of matriptase, milk-derived, released from its complexes (protein)
chain 1: SFVVTSVVAFPTDSKTVQRTQDNSCSFGLHARGVELMRFTTPGFPDSPYPAHARCQWALRGDADSVLSLTFRSFDLASCDERGSDLVTVYNTLSPMEPHALVQLCGTYPPSYNLTFHSSQNVLLITLITNTERRHPGFEATFFQLPRMSSCGGRLRKAQGTFNSPYYPGHYPPNIDCTWNIEVPNNQHVKVRFKFFYLLEPRRACGTCPKDYVEINGEKYCGERSQFVVTSNSNKITVRFHSDQSYTDTGFLAEYLSYDSSDPCPGQFTCRTGRCIRKELRCDGWADCTDHSDELNCSCDAGHQFTCKNKFCKPLFWVCDSVNDCGDNSDEQGCSCPAQTFRCSNGKCLSKSQQCNGKDDCGDGSDEASCPKVNVVTCTKHTYRCLNGLCLSKGNPECDGKEDCSDGSDEKDCDCGLRSFTRQAR
chain 2: VVGGTDADEGEWPWQVSLHALGQGHICGASLISPNWLVSAAHCYIDDRGFRYSDPTQWTAFLGLHDQSQRSAPGVQERRLKRIISHPFFNDFTFDYDIALLELEKPAEYSSMVRPICLPDASHVFPAGKAIWVTGWGHTQYGGTGALILQKGEIRVINQTTCENLLPQQITPRMMCVGFLSGGVDSCQGDSGGPLSSVEADGRIFQAGVVSWGDGCAQRNKPGVYTRLPLFRDWIKENTGV
- cleavage rate of the fluorescent substrate BOC-Gln-Ala-Arg-7-amido-4-methylcoumarin after 5 min at 37° C., pH 8.5 [1]: the cleavage rate for fluorescent substrate was significantly reduced, down to 18%
- gelatin zymography and cleavage of fluorescent substrate after 30 and 60 min at 37° C., pH 8.5 [1]: negligible activity was observed by gelatin zymography (panel B) and by cleavage of fluorescent substrate
- rate of cleavage of a synthetic, fluorescent substrate [1]: the rate of cleavage of a synthetic, fluorescent substrate by matriptase was decreased following complex formation
- matriptase activity by fluorescent substrate assay and zymography [2]: BBI can decrease matriptase activity in a dose-dependent manner

B2: BBI: soybean-derived Bowman-Birk inhibitor of serine proteases (protein)
chain: DDESSKPCCDQCACTKSNPPQCRCSDMRLNSCHSACKSCICALSYPAQCFCVDITDFCYEPCKPSEDDKEN
- effect on matriptase activity (matriptase [3]): decrease matriptase activity in a dose-dependent manner

B3: placenta bikunin: second Kunitz-type inhibitor with two Kunitz domains, isolated from human placenta (protein, UniProt O43291 28-252, looked up)
Kunitz-type protease …: ADRERSIHDFCLVSKVVGRCRASMPRWWYNVTDGSCQLFVYGGCDGNSNNYLTKEECLKKCATVTENATGDLATSRNAADSSVPSAPRRQDSEDHSSDMFNYEEYCTANAVTGPCRASFPRWYFDVERNSCNNFIYGGCRGNKNSYRSEEACMLRCFRQQENPPLPLGSKVVVLAGLFVMVLILFLGASMVYLIRVARRNQERALRTVWSSGDDKEQLVKNTYVL
- inhibition of human tissue kallikrein (human tissue kallikrein): strong inhibition
- inhibition of human plasmin (human plasmin): strong inhibition
- inhibition of human factor XIa (human factor XIa): strong inhibition
- inhibition of human plasma kallikrein (human plasma kallikrein): strong inhibition

B4: HAI-1: Kunitz-type serine protease inhibitor, cognate inhibitor of matriptase, co-purified from human milk (protein, UniProt O43278 36-529, looked up)
Kunitz-type protease …: GPPPAPPGLPAGADCLNSFTAGVPGFVLDTNASVSNGATFLESPTVRRGWDCVRACCTTQNCNLALVELQPDRGEDAIAACFLINCLYEQNFVCKFAPREGFINYLTREVYRSYRQLRTQGFGGSGIPKAWAGIDLKVQPQEPLVLKDVENTDWRLLRGDTDVRVERKDPNQVELWGLKEGTYLFQLTVTSSDHPEDTANVTVTVLSTKQTEDYCLASNKVGRCRGSFPRWYYDPTEQICKSFVYGGCLGNKNNYLREEECILACRGVQGGPLRGSSGAQATFPQGPSMERRHPVCSGTCQPTQFRCSNGCCIDSFLECDDTPNCPDASDEAACEKYTSGFDELQRIHFPSDKGHCVDLPDTGLCKESIPRWYYNPFSEHCARFTYGGCYGNKNNFEEEQQCLESCRGISKKDVFGLRREIPIPSTGSVEMAVAVFLVICIVVVVAILGYCFFKNQRKDFHGHHHHPPPTPASSTVSTTEDTEHLVYNHTTRPL
- gelatinolytic activity by gelatin zymography (matriptase [4]; [6]): negligible activity
- gelatinolytic activity of complexed matriptase (matriptase [4]; after 5 min incubation at 37° C., versus uncomplexed matriptase): much weaker activity
- activity by cleavage of fluorescent substrate (matriptase [5]; [6]): negligible activity
- cleavage rate for fluorescent substrate, remaining (matriptase [5]; after 5 min incubation at 37° C.): 18%
